No end group written: not given here.
What follows are substances tested against T1, p300 BRP (Homo sapiens, UniProt Q09472) (assay: ITC of histone and AIL peptides with p300 BRP). Details: p300 BRP module, Kd cell prints --.
T1 sequence (Q09472 1048-1282): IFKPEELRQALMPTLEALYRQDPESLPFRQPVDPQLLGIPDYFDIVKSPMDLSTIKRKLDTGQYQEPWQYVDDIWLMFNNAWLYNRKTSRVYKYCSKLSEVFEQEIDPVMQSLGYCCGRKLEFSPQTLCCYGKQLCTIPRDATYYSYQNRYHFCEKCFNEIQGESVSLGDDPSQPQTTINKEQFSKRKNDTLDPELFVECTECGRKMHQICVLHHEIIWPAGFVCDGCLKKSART
Format: binding

| Substance | Binding by ITC, result in words (printed in column N) |
| --- | --- |
| H3T11pho (1-20): histone H3 peptide 1-20, T11 phosphorylated | No binding |
| ARTKQTQRKSTGGKAPRKQL [H3 unmodified (1-20)] | No binding |
| AIL K1549K1558K1560tri-ac (1545-1562): p300 autoinhibitory loop peptide 1545-1562 acetylated on K1549, K1558, K1560 (SKNAK(Ac)KKNNKKTSK(Ac)NK(Ac)SS) | No binding |
| H3 K4me3 (1-20): histone H3 peptide 1-20, K4me3 | No binding |

Other lines, results leading:

| Binding by ITC, result in words (printed in column N) | Substance |
| --- | --- |
| No binding | H4 K16ac (4-24): histone H4 peptide 4-24, K16ac |
| No binding | H3 K4me1 (1-20): histone H3 peptide 1-20, K4me1 |
| No binding | SKNAKKKNNKKTSKNKSS [AIL (1545-1562)] |
| No binding | H3 S10pho (1-20): histone H3 peptide 1-20, S10 phosphorylated |
| No binding | H3 K9ac (1-20): histone H3 peptide 1-20, K9ac |
| No binding | H4 K5ac (4-24): histone H4 peptide 4-24, K5ac |

Same assay, conditions: p300 BRP module, mean and s.d. of experiments in triplicate

| Substance | Kd (μM) |
| --- | --- |
| H3 K18ac (1-20): histone H3 peptide 1-20, K18ac | large |

Reference: publication PMC6914384 (Nature, 2018)
